The target of experiment [1] is T1, human Y4 receptor (human, UniProt P50391 1-375). In words: 125I-PP displacement.
The target in experiment [2] is T1, human Y4 receptor. Description: 125I-PP displacement. The source holds these as a separate data set.

Numbering of substitutions follows the chain as printed. Read-outs that look alike come from different tables or passages of the source.

T1 sequence (P50391 whole entry): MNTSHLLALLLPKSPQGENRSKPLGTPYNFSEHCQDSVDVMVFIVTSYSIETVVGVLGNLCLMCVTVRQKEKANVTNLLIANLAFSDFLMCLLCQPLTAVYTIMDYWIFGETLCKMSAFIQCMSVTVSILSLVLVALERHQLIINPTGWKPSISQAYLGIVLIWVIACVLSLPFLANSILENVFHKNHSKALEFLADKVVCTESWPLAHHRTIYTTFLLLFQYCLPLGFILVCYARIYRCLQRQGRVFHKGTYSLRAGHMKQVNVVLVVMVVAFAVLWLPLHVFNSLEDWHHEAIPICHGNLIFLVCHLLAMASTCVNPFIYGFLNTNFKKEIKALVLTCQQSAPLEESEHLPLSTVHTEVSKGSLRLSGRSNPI

B1: 4060312 (peptide)
chain: GAPLEPEYPGDDATPEQKARYAAALRRYINHLTRPRY
B1 came in with a concentration for half-maximal inhibition (IC50) with human Y4 receptor [1] of 0.101 nM.

B2: 4060895 (peptide)
chain: PAPLEPHYPGDNATPEEMAKYYSELRRYIDKLTRPRY
Molecule B2 had an IC50 in the experiment with human Y4 receptor [1] of 0.121 nM. The IC50 values of the last two molecules are within 1.5-fold of each other.

B3: 4057271 (peptide)
chain: B2 chain with P1A, H7V, E17Q, D30N
B3 returned an IC50 with human Y4 receptor [2] of 0.062 nM.

B4: 4057261 (peptide)
chain: PLEPVYPGDNATPEQMAKYAADLRRYINKLTRPRY
The molecule B4 showed a half-maximal inhibitory concentration (IC50) in the experiment with human Y4 receptor [2] of 0.056 nM. The IC50 values of the last two molecules are within 1.5-fold of each other.

B5: 4060899 (peptide)
chain: B4 chain with M16L, D22E, N28D
Consider B5, for which the IC50 with human Y4 receptor [1] turned out to be 0.153 nM.

B6: 4057445 (peptide)
chain: PAPLEPTYPGDDATPEEMAKYAAELRRYINKLTRPRY
Molecule B6 had an IC50 with human Y4 receptor [2] of 0.107 nM.

B7: 4060308 (peptide)
chain: B1 chain with E7T, K18L, R20K, A24E
B7 gave an IC50 in the experiment with human Y4 receptor [1] of 0.117 nM.

B8: 4060316 (peptide)
chain: B2 chain with H7T, M18L, D30N
Regarding B8, the IC50 with human Y4 receptor [1] was 0.101 nM.

B9: 4060314 (peptide)
chain: B6 chain with E17Q, M18L, A22Y, A23S
As to B9, in the experiment with human Y4 receptor [1], the IC50 was 0.084 nM. This IC50 and that of the molecule before are within 1.5-fold of each other.

B10: 4060687 (peptide)
chain: B2 chain with Y22A, S23A
Consider B10, for which, in the experiment with human Y4 receptor [1], the IC50 was 0.171 nM.

B11: 4060694 (peptide)
chain: AAPLEPTAPGDNATPEQMARYAAALRRYINKLTRPRY
In the experiment with human Y4 receptor [1], B11 gave an IC50 of 0.079 nM.

B12: 4060696 (peptide)
chain: AAPLEPKYPGDNATPEQLAKYAAELRRYIDKLTRPRY
Take B12: the IC50 with human Y4 receptor [1] amounted to 0.151 nM. Against the preceding molecule, the IC50 is about 1.9-fold higher.

B13: 4061080 (peptide)
chain: B12 chain with A1G, K7T, L18K
Molecule B13 gave an IC50 in the experiment with human Y4 receptor [1] of 0.105 nM.

B14: 4060601 (peptide)
chain: B12 chain with A1G, K7E, L18K, E24A
For B14, the IC50 with human Y4 receptor [1] amounted to 0.088 nM.

B15: 4057141 (peptide)
chain: AAPLEPEYPGDDATPQQMAHYAAELRRYINKLTRPRY
Take B15: the IC50 with human Y4 receptor [2] worked out at 0.114 nM.

B16: 4057140 (peptide)
chain: B15 chain with A1P
Molecule B16 registered an IC50 in the experiment with human Y4 receptor [2] of 0.126 nM. This IC50 and that of the molecule before are within 1.5-fold of each other.

B17: 4057279 (peptide)
chain: B15 chain with A1P, A2K, H20R
As to B17, in the experiment with human Y4 receptor [2], the IC50 worked out at 0.08 nM.

B18: 4060685 (peptide)
chain: B15 chain with A1P, M18K, H20R
In the experiment with human Y4 receptor [1], B18 returned an IC50 of 0.065 nM.

B19: 4057444 (peptide)
chain: B6 chain with E16Q
B19 came in with a half-inhibitory concentration (IC50) with human Y4 receptor [2] of 0.116 nM.

B20: 4060684 (peptide)
chain: B15 chain with A1G, M18K, H20R
In the case of B20, in the experiment with human Y4 receptor [1], the half-maximal inhibitory concentration (IC50) is 0.076 nM.

B21: 4057137 (peptide)
chain: B15 chain with A1H, H20R
B21: in the experiment with human Y4 receptor [2], the IC50 was determined as 0.092 nM.

B22: 4057280 (peptide)
chain: B15 chain with A2K, H20R
The molecule B22 had an IC50 with human Y4 receptor [2] of 0.049 nM.

B23: 4057443 (peptide)
chain: B15 chain with A1P, E7D, H20K
Consider B23, for which the IC50 in the experiment with human Y4 receptor [2] was 0.078 nM.

B24: 4057441 (peptide)
chain: B15 chain with A1P, M18L, H20K
For B24, the IC50 with human Y4 receptor [2] amounted to 0.088 nM.

B25: 4057136 (peptide)
chain: B15 chain with A1G, H20R
B25 came in with an IC50 with human Y4 receptor [2] of 0.064 nM.

B26: 4057259 (peptide)
chain: B15 chain with H20K, E24D
In the case of B26, the half-inhibitory concentration (IC50) with human Y4 receptor [2] was found to be 0.083 nM.

B27: 4057135 (peptide)
chain: B15 chain with A1D, H20R
For the molecule B27, in the experiment with human Y4 receptor [2], the IC50 turned out to be 0.097 nM.

B28: 4060313 (peptide)
chain: GAPLEPTYPGDDATPEQLAKYYSELRRYINKLTRPRY
In the case of B28, the IC50 in the experiment with human Y4 receptor [1] was found to be 0.097 nM.

B29: 4057138 (peptide)
chain: PLEPEYPGDDATPQQMAHYAAELRRYINKLTRPRY
B29 showed a 50% inhibitory concentration (IC50) in the experiment with human Y4 receptor [2] of 0.086 nM.

B30: 4057153 (peptide)
chain: B29 chain with H18R
In the experiment with human Y4 receptor [2], B30 displayed a concentration for half-maximal inhibition (IC50) of 0.057 nM.

B31: 4057159 (peptide)
chain: B4 chain with K18R, D22E
Consider B31, for which, in the experiment with human Y4 receptor [2], the IC50 stood at 0.053 nM.

B32: 4057144 (peptide)
chain: PAPLEPVYPGDNATPEQIAKYAADLRRYINKLTRPRY
As to B32, the IC50 with human Y4 receptor [2] amounted to 0.083 nM.

B33: 4057163 (peptide)
chain: B11 chain with A1G, T7V, A8Y, A24E
In turn, B33 showed a half-inhibitory concentration (IC50) with human Y4 receptor [2] of 0.088 nM.

B34: 4057231 (peptide)
chain: B32 chain with V7H, I18M
Regarding B34, the IC50 in the experiment with human Y4 receptor [2] was found to be 0.049 nM.

B35: 4057148 (peptide)
chain: B32 chain with I18T
In turn, B35 had an IC50 with human Y4 receptor [2] of 0.069 nM.

B36: 4057273 (peptide)
chain: B32 chain with N12D, E16Q, I18M
In the case of B36, the IC50 with human Y4 receptor [2] stood at 0.061 nM.

B37: 4057335 (peptide)
chain: B32 chain with I18M, K20R
Molecule B37 had an IC50 with human Y4 receptor [2] of 0.08 nM.

B38: 4057232 (peptide)
chain: B32 chain with V7E, I18M
The molecule B38 registered an IC50 in the experiment with human Y4 receptor [2] of 0.128 nM.

B39: 4061081 (peptide)
chain: B12 chain with A1P, K7T, L18K
In the experiment with human Y4 receptor [1], B39 yielded an IC50 of 0.21 nM.

B40: 4057146 (peptide)
chain: B32 chain with I18V
In the experiment with human Y4 receptor [2], B40 showed an IC50 of 0.08 nM.

B41: 4057446 (peptide)
chain: B6 chain with D12N
B41 yielded an IC50 in the experiment with human Y4 receptor [2] of 0.109 nM.

B42: 4057440 (peptide)
chain: B12 chain with A1P, K7T, D30N
In turn, B42 came in with an IC50 with human Y4 receptor [2] of 0.089 nM.

B43: 4057162 (peptide)
chain: B32 chain with I18M, K20R, D24E
Take B43: the IC50 with human Y4 receptor [2] stood at 0.06 nM.

B44: 4057338 (peptide)
chain: B32 chain with P1H, I18M, K20R
For B44, the IC50 in the experiment with human Y4 receptor [2] was found to be 0.078 nM.

B45: 4057161 (peptide)
chain: B11 chain with T7V, A8Y, A24E
As to B45, the IC50 with human Y4 receptor [2] was 0.125 nM.

B46: 4057145 (peptide)
chain: B32 chain with I18L
As for B46, the IC50 with human Y4 receptor [2] came out at 0.07 nM.

B47: 4057233 (peptide)
chain: B32 chain with V7F, I18M
In turn, B47 showed an IC50 with human Y4 receptor [2] of 0.13 nM.

B48: 4057151 (peptide)
chain: B32 chain with I18M, D24E
In the experiment with human Y4 receptor [2], B48 gave an IC50 of 0.056 nM. Compared with the last molecule, the IC50 is about 2.3-fold lower.

B49: 4057147 (peptide)
chain: B32 chain with I18D
For the molecule B49, in the experiment with human Y4 receptor [2], the IC50 is 0.199 nM. This IC50 is about 3.6-fold higher than that of the molecule before.

B50: 4057229 (peptide)
chain: B32 chain with V7T, I18M
The molecule B50 yielded an IC50 with human Y4 receptor [2] of 0.143 nM.

B51: 4057258 (peptide)
chain: B15 chain with A1P, H20K, E24D
B51 had an IC50 with human Y4 receptor [2] of 0.078 nM.

B52: 4057275 (peptide)
chain: HPLEPEYPGDDATPQQMARYAAELRRYINKLTRPRY
Consider B52, for which the IC50 with human Y4 receptor [2] was found to be 0.162 nM.

B53: 4057277 (peptide)
chain: B52 chain with H1D
Take B53: the IC50 in the experiment with human Y4 receptor [2] stood at 0.093 nM.

B54: 4057139 (peptide)
chain: B52 chain with H1A, R19H
On to B54, for which, in the experiment with human Y4 receptor [2], the IC50 came to 0.078 nM.

B55: 4057276 (peptide)
chain: B52 chain with H1G
In turn, B55 had an IC50 in the experiment with human Y4 receptor [2] of 0.085 nM.

B56: 4057257 (peptide)
chain: B52 chain with H1A, R19K, E23D
Take B56: in the experiment with human Y4 receptor [2], the IC50 was determined as 0.083 nM.

Source of the values: patent US20100279930A1 (published 2010).
